Tests used:
[1] = target: NPF motif peptide of DONSON (residues 71-88); assay: native holdup (nHU) titration with dot blot; DONSON_71-88-saturated streptavidin resin mixed with control resin at various proportions; extracts of HEK293T cells expressing HA-tagged POLE2 variants; 4 °C, 2 h; depletion quantified with an antibody against the HA tag; apparent
[2] = target: non-catalytic subunit of DNA polymerase ε (POLE2), endogenous (human (endogenous in Jurkat)) (UniProt P56282); assay: native holdup (nHU) with mass spectrometry; estimate from the difference between the depletion of POLE and of POLE2 by the same NPF motif bait, with about 1 nM of each assumed in the extract; apparent
Chain of non-catalytic subunit of DNA polymerase ε (POLE2), endogenous (human (endogenous in Jurkat)) (P56282 whole entry): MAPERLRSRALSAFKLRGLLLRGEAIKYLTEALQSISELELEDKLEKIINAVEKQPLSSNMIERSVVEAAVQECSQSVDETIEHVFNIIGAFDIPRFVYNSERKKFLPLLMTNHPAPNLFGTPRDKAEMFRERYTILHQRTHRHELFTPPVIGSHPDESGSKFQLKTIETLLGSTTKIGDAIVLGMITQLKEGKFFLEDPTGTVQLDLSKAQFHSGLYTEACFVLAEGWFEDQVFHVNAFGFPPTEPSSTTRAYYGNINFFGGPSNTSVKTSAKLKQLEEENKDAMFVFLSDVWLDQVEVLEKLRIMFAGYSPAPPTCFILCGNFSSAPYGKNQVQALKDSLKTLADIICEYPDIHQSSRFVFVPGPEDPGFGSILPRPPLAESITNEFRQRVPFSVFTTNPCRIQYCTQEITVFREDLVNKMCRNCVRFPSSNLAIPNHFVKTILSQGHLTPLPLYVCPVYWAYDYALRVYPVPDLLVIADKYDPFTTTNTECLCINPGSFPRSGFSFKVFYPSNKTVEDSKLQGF

Chain of catalytic subunit of DNA polymerase ε (POLE), endogenous (Q07864 whole entry): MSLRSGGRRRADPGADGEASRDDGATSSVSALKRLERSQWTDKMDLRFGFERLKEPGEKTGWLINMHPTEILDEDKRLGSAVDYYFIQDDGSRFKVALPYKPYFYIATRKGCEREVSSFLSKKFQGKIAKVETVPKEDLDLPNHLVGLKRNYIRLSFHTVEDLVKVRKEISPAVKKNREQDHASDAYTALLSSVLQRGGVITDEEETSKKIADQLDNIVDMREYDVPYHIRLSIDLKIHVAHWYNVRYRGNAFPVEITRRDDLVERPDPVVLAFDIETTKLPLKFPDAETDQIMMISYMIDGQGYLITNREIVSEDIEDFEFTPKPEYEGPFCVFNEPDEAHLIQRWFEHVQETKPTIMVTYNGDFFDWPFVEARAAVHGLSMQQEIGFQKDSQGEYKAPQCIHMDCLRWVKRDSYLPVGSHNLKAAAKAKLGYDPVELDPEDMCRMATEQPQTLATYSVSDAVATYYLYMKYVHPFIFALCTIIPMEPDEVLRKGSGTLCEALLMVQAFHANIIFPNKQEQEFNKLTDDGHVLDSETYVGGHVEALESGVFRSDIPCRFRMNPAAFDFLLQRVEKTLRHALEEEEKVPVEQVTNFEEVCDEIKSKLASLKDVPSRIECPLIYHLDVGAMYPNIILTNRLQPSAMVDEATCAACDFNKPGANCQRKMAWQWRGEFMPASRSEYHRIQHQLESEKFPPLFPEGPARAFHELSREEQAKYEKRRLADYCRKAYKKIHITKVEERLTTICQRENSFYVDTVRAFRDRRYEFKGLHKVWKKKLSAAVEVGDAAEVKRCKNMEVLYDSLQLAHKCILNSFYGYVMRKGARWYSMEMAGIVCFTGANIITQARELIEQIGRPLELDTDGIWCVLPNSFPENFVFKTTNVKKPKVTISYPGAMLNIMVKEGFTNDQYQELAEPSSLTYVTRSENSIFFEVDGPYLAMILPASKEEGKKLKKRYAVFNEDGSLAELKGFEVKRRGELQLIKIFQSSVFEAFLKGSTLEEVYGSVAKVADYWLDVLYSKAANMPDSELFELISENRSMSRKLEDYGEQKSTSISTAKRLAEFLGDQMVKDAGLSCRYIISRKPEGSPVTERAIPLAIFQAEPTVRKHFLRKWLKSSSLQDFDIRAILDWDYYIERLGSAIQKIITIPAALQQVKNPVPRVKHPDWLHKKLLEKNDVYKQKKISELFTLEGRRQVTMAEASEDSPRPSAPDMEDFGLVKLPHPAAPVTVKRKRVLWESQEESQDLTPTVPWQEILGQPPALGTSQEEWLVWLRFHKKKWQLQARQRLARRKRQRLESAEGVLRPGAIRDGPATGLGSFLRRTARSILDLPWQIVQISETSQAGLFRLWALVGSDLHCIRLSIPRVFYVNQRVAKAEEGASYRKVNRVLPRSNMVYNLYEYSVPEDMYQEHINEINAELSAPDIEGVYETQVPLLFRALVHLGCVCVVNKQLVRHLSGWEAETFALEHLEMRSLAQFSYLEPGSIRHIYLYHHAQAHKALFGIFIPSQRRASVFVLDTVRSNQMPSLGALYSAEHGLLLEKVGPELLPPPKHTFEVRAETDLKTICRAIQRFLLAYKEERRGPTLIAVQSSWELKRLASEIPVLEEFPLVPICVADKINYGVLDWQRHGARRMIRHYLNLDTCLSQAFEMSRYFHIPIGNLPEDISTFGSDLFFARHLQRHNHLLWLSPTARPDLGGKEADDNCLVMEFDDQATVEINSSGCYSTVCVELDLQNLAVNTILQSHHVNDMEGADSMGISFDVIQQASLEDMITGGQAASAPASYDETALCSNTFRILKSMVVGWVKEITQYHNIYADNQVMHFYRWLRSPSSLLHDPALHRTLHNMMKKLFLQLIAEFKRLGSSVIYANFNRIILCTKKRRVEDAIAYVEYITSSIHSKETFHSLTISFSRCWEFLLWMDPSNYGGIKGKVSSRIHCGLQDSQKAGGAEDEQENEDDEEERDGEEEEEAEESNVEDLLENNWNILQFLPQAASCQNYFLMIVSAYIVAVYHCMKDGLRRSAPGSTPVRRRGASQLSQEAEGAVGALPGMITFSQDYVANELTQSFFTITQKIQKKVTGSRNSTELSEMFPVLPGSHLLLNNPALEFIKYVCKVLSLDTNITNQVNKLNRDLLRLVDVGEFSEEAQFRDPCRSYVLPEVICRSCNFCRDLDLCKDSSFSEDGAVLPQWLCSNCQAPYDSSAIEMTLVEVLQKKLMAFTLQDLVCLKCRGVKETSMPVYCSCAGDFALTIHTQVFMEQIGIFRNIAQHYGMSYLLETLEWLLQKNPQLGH
Chain of HA-MBP-POLE2 (P56282 whole entry): as the sequence (P56282 whole entry) above

| fold weaker binding than HA-POLE2 [1] [fold] | Kd [2] [nM] | Substance |
| --- | --- | --- |
| 10 | – | HA-MBP-POLE2 (from UniProt P56282 1-527) (natural protein) |
| – | 0.1 to 0.3 | catalytic subunit of DNA polymerase ε (POLE), endogenous (from UniProt Q07864 1-2286) (natural protein) |

— paper PMC12808100, “The non-catalytic DNA polymerase ε subunit is an NPF motif recognition protein” (Nature Communications, 2025)
